Experiments:
soluble CD16A (sCD16A) = target: T1, soluble CD16A (sCD16A) (human, UniProt P08637 17-208, biotin- or HRP-conjugated where used as the ELISA probe); experiment: SPR (BIAcore), receptor immobilized
T1 construct: extracellular domain; Printed only as soluble CD16A; Also used here where an ELISA names only CD16 or CD16A; also called hCD16A; FcγRIIIA

soluble CD32A (sCD32A) = target: T2, soluble CD32A (sCD32A) (UniProt P12318 34-217, limits assumed); experiment: SPR (BIAcore), receptor immobilized
T2 construct: extracellular domain; Negative control receptor in SPR; also called control receptor
T2 sequence (looked up): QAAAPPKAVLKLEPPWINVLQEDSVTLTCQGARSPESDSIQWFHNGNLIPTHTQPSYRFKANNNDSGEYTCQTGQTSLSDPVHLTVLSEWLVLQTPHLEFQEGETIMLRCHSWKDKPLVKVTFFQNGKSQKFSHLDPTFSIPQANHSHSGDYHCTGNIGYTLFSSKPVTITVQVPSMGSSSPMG

soluble CD32B (sCD32B) = target: T3, soluble CD32B (sCD32B) (human, UniProt P31994 43-217, biotinylated where used as the ELISA probe); experiment: SPR (BIAcore), sCD32B immobilized, diabody 6.25-200 nM as analyte, bivalent analyte fit
T3 construct: extracellular domain; also called huCD32B; FcγRIIB
T3 sequence (looked up): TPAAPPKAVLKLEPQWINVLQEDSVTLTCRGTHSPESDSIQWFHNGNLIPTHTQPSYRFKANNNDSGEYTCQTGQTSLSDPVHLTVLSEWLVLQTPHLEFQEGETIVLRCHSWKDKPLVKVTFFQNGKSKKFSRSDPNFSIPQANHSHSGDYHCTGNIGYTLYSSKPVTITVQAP

T1 sequence (P08637 17-208): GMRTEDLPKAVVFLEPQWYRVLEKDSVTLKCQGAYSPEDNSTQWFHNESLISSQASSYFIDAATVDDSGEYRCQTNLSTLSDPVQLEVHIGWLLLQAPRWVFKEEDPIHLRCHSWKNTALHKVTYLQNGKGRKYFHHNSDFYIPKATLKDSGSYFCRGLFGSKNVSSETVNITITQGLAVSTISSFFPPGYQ

B1: h2B6 covalent monospecific diabody (CMD) (other)
chain: EIVLTQSPDFQSVTPKEKVTFTCRTSQSIGTNIHWYQQKPDQSPKLLIKEVSESISGVPSRFSGSGSGTDFTLTINSLEAEDAATYYCQQSNTWPFTFGGGTKVEIKGGGSGGGGQVQLVQSGAEVKKPGASVKVSCKASGYTFTNYWIHWVRQAPGQGLEWIGVIDPSDTYPNYNKKFKGRVTMTVVVSTSTAYMELRSLRSDDTAVYYCARNGDSDYYSGMDYWGQGTTVTVSSLGGC
notes: Homodimer of construct 4 (hu2B6VL-hu2B6VH-LGGC); also called h2B6 CMD; h2B6 diabody
For B1, the binding result (soluble CD16A (sCD16A)) was “no binding (tested: 100 nM)”, the binding result (soluble CD32A (sCD32A)) was “no binding (tested: 100 nM)” and the Kd (soluble CD32B (sCD32B)) was 21 nM.

Source: patent publication US20130295121A1 (published 2013)
